Substitutions are numbered along the chain they refer to.
Columns and labels:
Assay in all cases: stopped-flow fluorometry; mGppNHp-bound RHO protein (0.2 μM) rapidly mixed with IQGAP1 variant (2 μM, or 2-12 μM for kon); koff by displacement with 10 μM non-fluorescent GppNHp-bound GTPase; Kd = koff/kon; 30 mM Tris-HCl pH 7.5, 10 mM KH2PO4/K2HPO4, 5 mM MgCl2, 3 mM DTT
Conditions in all cases: both partners purified
[1] = biological target: T1, IQGAP1 GRD1-RGCT S1441E (aa 877-1558) (human, UniProt P46940 877-1558, S1441E)
T1 construct: human IQGAP1 aa 877-1558 with the phosphomimetic mutation S1441E, from the vector pET46 EkLIC; source: E. coli (pLysS BL21(DE3), CodonPlusRIL or BL21(Rosetta)), purified (Ni-NTA, gel filtration)
T1 sequence (looked up): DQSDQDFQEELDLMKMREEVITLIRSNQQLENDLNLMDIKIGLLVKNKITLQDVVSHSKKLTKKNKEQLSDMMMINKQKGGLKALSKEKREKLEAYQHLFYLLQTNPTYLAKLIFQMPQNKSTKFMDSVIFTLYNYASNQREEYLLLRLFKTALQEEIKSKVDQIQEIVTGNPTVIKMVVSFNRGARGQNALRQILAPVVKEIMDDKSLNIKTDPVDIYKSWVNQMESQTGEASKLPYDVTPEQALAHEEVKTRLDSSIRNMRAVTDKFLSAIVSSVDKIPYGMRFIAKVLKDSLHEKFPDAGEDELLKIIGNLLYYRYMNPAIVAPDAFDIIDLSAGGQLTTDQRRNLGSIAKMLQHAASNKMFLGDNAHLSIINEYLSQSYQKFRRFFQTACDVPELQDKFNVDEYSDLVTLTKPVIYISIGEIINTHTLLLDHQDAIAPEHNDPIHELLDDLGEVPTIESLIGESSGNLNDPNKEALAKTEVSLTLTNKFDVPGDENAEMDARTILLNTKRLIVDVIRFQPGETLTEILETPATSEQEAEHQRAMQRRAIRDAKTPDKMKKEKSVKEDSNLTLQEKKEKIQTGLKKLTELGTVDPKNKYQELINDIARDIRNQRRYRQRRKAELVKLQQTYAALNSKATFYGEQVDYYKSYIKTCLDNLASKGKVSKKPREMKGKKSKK

[2] = biological target: T2, IQGAP1 GRD1-RGCT wild type (aa 877-1558) (human, UniProt P46940 877-1558)
T2 construct: human IQGAP1, GRD and RGCT domains, lacks the last 99 amino acids, aa 877-1558; also called GRD1-RGCT^WT; IQGAP1^877-1558
T2 sequence (looked up): T1 sequence (looked up) with E565S

[3] = biological target: T3, IQGAP1 GRD1-RGCT S1443E (aa 877-1558) (human, UniProt P46940 877-1558, S1443E)
T3 construct: human IQGAP1 aa 877-1558 with the phosphomimetic mutation S1443E (printed as S1143E in the methods, S1443E everywhere else), from the vector pET46 EkLIC; source: E. coli (pLysS BL21(DE3), CodonPlusRIL or BL21(Rosetta)), purified (Ni-NTA, gel filtration)
T3 sequence (looked up): T1 sequence (looked up) with E565S, S567E

Kd [1]: 2050 nM
Kd [2]: 2720 nM
Kd [3]: 7030 nM
B1: CDC42 (aa 1-178) (domain or fragment)
chain: not shown
notes: human CDC42, C-terminally truncated, aa 1-178; Loaded non-covalently with mGppNHp, tGppNHp, mGDP or non-fluorescent GppNHp; the nucleotide is named in the format of each assay; also called CDC42^WT; CDC42-mGppNHp

Reference: publication PMC5159498, “IQGAP1 Interaction with RHO Family Proteins Revisited” (The Journal of Biological Chemistry, 2016)
